Experimental findings from article PMC5261807 (2017) are described below.

Non-standard residues stand in square brackets, D forms with d. Primed or numbered codes have the meaning given here. No end group written: not given here. Me2s″ = symmetric dimethylarginine (Rme2s); Arg(Me2a) = CN(C)C(=N)NCCC[C@H](N)C(=O)O; Lys(Me3) = C[N+](C)(C)CCCC[C@H](N)C(=O)O; Arg(Me2s) = CN=C(NC)NCCC[C@H](N)C(=O)O; pT = C[C@@H](OP(=O)(O)O)[C@H](N)C(=O)O; Lys(Me2) = CN(C)CCCC[C@H](N)C(=O)O; pS = N[C@@H](COP(=O)(O)O)C(=O)O; Lys(Me) = CNCCCC[C@H](N)C(=O)O

T1: Bdf1 bromodomain 2 (GST-tagged, WT) (Saccharomyces cerevisiae (strain ATCC …, UniProt P35817))
T1 chain: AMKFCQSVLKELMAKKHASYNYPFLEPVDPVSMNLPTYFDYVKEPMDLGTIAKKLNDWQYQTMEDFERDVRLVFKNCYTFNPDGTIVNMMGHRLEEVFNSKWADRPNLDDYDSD

T2: Bdf1 bromodomain 1 (GST-tagged, WT) (Saccharomyces cerevisiae (strain ATCC …, UniProt P35817))
T2 chain: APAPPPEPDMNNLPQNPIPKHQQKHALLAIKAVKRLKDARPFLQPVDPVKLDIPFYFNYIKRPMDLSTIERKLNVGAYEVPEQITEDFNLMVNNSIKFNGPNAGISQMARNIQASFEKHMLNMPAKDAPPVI

In the first assay the target is T1, Bdf1 bromodomain 2 (GST-tagged, WT). Description: histone peptide array probed with recombinant GST-bromodomain, signal normalised to myc peptide control.
Take SGRGKGGKGLGKGGAKRHR (S G R G K G G K G L G Kac G G A K R H R): the binding score was found to be 0.0271.

Turning to SGRGKGGKGLGKGGAKRHR (S G Rme2s G Kac G G Kac G L G Kac G G A K R H R), the binding score is 0.605.

With ARTKQTARKSTGGKAPRKQ (A R T K Q T A R Kme3 S T G G Kac A P R K Q), the binding score stood at 0.0479.

As to A[Arg(Me2a)]T[Lys(Me2)]QTA[Arg(Me2a)][Lys(Me2)]STGGKAPRKQ, the binding score came out at 0.

On to ARTKQTARKSTGGKAPRKQ (A R T K Q T A R K pS T G G Kac A P R K Q), for which the binding score was found to be 0.115.

For the molecule A[Arg(Me2a)]T[Lys(Me2)]QTA[Arg(Me2s)][Lys(Me3)]STGGKAPRKQ, the binding score was determined as 0.

Consider SGRGKGGKGLGKGGAKRHR (S G Rme2s G K G G K G L G K G G A K R H R), for which the binding score came to 0.

Turning to PRKQLATKAA[Arg(Me2s)][Lys(Me2)][pS]APATGG, the binding score came to 0.

As to ARTK(Ac)QTA[Arg(Me2s)][Lys(Me)]STGGKAPRKQ, the binding score was 0.00148.

For the molecule ARTKQTA[Arg(Me2a)][Lys(Me3)]S[pT]GGKAPRKQ, the binding score turned out to be 0.

On to ARTKQTARKSTGGKAPRKQ (A R T K Q T A Rme2s K S T G G K A P R K Q), for which the binding score worked out at 0.

In the case of ARTKQTARKSTGGKAPRKQ (A R T K Q T A Rme2a Kme2 S pT G G K A P R K Q), the binding score was 0.

As to ARTKQTARKSTGGKAPRKQ (A R T K Q T A R Kme3 pS T G G K A P R K Q), the binding score came out at 0.

As for PRKQLATKAAR[Lys(Me)]SAPATGG, the binding score is 0.

On to ARTKQTARKSTGGKAPRKQ (A R T K Q T A R K pS T G G K A P R K Q), for which the binding score came to 0.

Take A[Arg(Me2a)][pT]K(Me)QTARKSTGGKAPRKQ: the binding score worked out at 0.00207.

In the case of A[Arg(Me2a)]TK(Ac)QTARK(Ac)STGGKAPRKQ, the binding score is 0.0627.

For the molecule A[Arg(Me2s)]T[Lys(Me3)]QTA[Arg(Me2a)][Lys(Me)]STGGKAPRKQ, the binding score came to 0.

Turning to ARTKQTARKSTGGKAPRKQ (A R T Kme3 Q T A Rme2a Kme3 S T G G K A P R K Q), the binding score was 0.

Regarding PRKQLATKAARK(Me)[pS]APATGG, the binding score was determined as 0.

As to ARTKQTARKSTGGKAPRKQ (A Rme2a T Kme3 Q T A R Kac S T G G K A P R K Q), the binding score is 0.00758.

Regarding SGRGKQGGKARAK(Ac)AKSRSS [H2a 1-19], the binding score turned out to be 0.0115.

For A[Arg(Me2s)]T[Lys(Me)]QTA[Arg(Me2s)][Lys(Me2)]STGGKAPRKQ, the binding score worked out at 0.

Regarding ARTKQTARKSTGGKAPRKQ (A R T Kme1 Q T A Rme2s Kme3 S T G G K A P R K Q), the binding score amounted to 0.

For PRKQLATKAAR(Me2s″)K[pS]APATGG, the binding score worked out at 0.

For the molecule SGRGKGGKGLGKGGAKRHR (pS G Rme2a G Kac G G Kac G L G K G G A K R H R), the binding score stood at 0.206.

Take ARTKQTARKSTGGKAPRKQ (A Rme2s T Kac Q T A Rme2s K S T G G K A P R K Q): the binding score was 0.00876.

The target in another assay is T2, Bdf1 bromodomain 1 (GST-tagged, WT). The assay is described as above.
For SGRGKGGKGLGKGGAKRHR (S G R G K G G K G L G Kac G G A K R H R), the binding score worked out at 0.00448.

Regarding SGRGKGGKGLGKGGAKRHR (S G Rme2s G Kac G G Kac G L G Kac G G A K R H R), the binding score stood at 0.391.

Take ARTKQTARKSTGGKAPRKQ (A R T K Q T A R Kme3 S T G G Kac A P R K Q): the binding score worked out at 0.0133.

On to A[Arg(Me2a)]T[Lys(Me2)]QTA[Arg(Me2a)][Lys(Me2)]STGGKAPRKQ, for which the binding score was determined as 0.00126.

Take ARTKQTARKSTGGKAPRKQ (A R T K Q T A R K pS T G G Kac A P R K Q): the binding score stood at 0.0299.

For the molecule A[Arg(Me2a)]T[Lys(Me2)]QTA[Arg(Me2s)][Lys(Me3)]STGGKAPRKQ, the binding score was found to be 0.0167.

In the case of SGRGKGGKGLGKGGAKRHR (S G Rme2s G K G G K G L G K G G A K R H R), the binding score was found to be 0.00646.

For the molecule PRKQLATKAA[Arg(Me2s)][Lys(Me2)][pS]APATGG, the binding score amounted to 0.017.

On to ARTK(Ac)QTA[Arg(Me2s)][Lys(Me)]STGGKAPRKQ, for which the binding score was found to be 0.0242.

Take ARTKQTA[Arg(Me2a)][Lys(Me3)]S[pT]GGKAPRKQ: the binding score is 0.

Regarding ARTKQTARKSTGGKAPRKQ (A R T K Q T A Rme2s K S T G G K A P R K Q), the binding score amounted to 0.00305.

Consider ARTKQTARKSTGGKAPRKQ (A R T K Q T A Rme2a Kme2 S pT G G K A P R K Q), for which the binding score came to 0.00323.

As to ARTKQTARKSTGGKAPRKQ (A R T K Q T A R Kme3 pS T G G K A P R K Q), the binding score was found to be 0.

In the case of PRKQLATKAAR[Lys(Me)]SAPATGG, the binding score came out at 0.

On to ARTKQTARKSTGGKAPRKQ (A R T K Q T A R K pS T G G K A P R K Q), for which the binding score came to 0.

For the molecule A[Arg(Me2a)][pT]K(Me)QTARKSTGGKAPRKQ, the binding score is 0.00412.

As to A[Arg(Me2a)]TK(Ac)QTARK(Ac)STGGKAPRKQ, the binding score is 0.0911.

With A[Arg(Me2s)]T[Lys(Me3)]QTA[Arg(Me2a)][Lys(Me)]STGGKAPRKQ, the binding score worked out at 0.

Take ARTKQTARKSTGGKAPRKQ (A R T Kme3 Q T A Rme2a Kme3 S T G G K A P R K Q): the binding score is 0.00538.

Consider PRKQLATKAARK(Me)[pS]APATGG, for which the binding score stood at 0.0151.

As to ARTKQTARKSTGGKAPRKQ (A Rme2a T Kme3 Q T A R Kac S T G G K A P R K Q), the binding score stood at 0.00628.

SGRGKQGGKARAK(Ac)AKSRSS [H2a 1-19]: the binding score amounted to 0.00932.

A[Arg(Me2s)]T[Lys(Me)]QTA[Arg(Me2s)][Lys(Me2)]STGGKAPRKQ: the binding score turned out to be 0.00197.

For the molecule ARTKQTARKSTGGKAPRKQ (A R T Kme1 Q T A Rme2s Kme3 S T G G K A P R K Q), the binding score came out at 0.

In the case of PRKQLATKAAR(Me2s″)K[pS]APATGG, the binding score turned out to be 0.

SGRGKGGKGLGKGGAKRHR (pS G Rme2a G Kac G G Kac G L G K G G A K R H R): the binding score turned out to be 0.0927.

Turning to ARTKQTARKSTGGKAPRKQ (A Rme2s T Kac Q T A Rme2s K S T G G K A P R K Q), the binding score stood at 0.
